Assay results taken from patent US20180148503A1 (Memorial Sloan Kettering, published 2018).

Legend:
[1] = molecular target: T1, HLA-A*0201 on T2 cells without added peptide (human); assay: T2 stabilisation: surface HLA-A*02 level after pulsing with 50 µg/mL peptide, flow cytometry; the staining antibody is not named for this panel
T1 construct: Background target (T2 cells with no peptide pulsed); also used as the HLA-A*02 partner of the peptide in the stabilisation read-out; also called T2 cells alone; unpulsed T2 cells

[2] = molecular target: T2, PRA435-443 (…) / HLA-A*0201 complex (human); assay: flow cytometry on tumor cell lines
T2 construct: also called PRAME P435

[3] = molecular target: T3, PRA300-309 (…) / HLA-A*0201 complex (human); assay: method not stated; told in the ADCC example with PRAME+/HLA-A*02:01+ leukemia cells; upper end of the printed range 3-4 nM
T3 construct: also called PRAME300; PRAME P300

[4] = molecular target: T3, PRA300-309 (…) / HLA-A*0201 complex; assay: method not stated; told in the ADCC example with PRAME+/HLA-A*02:01+ leukemia cells; lower end of the printed range 3-4 nM
[5] = molecular target: T3, PRA300-309 (…) / HLA-A*0201 complex; assay: cell-based or functional assay
[6] = molecular target: T1, HLA-A*0201 on T2 cells without added …; assay: flow cytometry, Prame20 mAb on T2 cells without peptide; axis without numbers
[7] = molecular target: T4, 009-mut5 (…) / HLA-A*0201 complex on T2 cells (human); assay: flow cytometry, APC-Pr300#20 at 3 µg/ml on peptide-pulsed T2 cells; the sheet gives 324 for T2 alone and 68351 for Pr300
T4 construct: also called EXT009-mut5

[8] = molecular target: T5, 009-mut7 (…) / HLA-A*0201 complex on T2 cells (human); assay: as above
T5 construct: also called EXT009-mut7; Pr306A

[9] = molecular target: T6, 009-mut9 (…) / HLA-A*0201 complex on T2 cells (human); assay: as above
T6 construct: also called EXT009-mut9

[10] = molecular target: T7, 009-mut3 (…) / HLA-A*0201 complex on T2 cells (human); assay: as above
T7 construct: also called EXT009-mut3; Pr302A

[11] = molecular target: T8, 009-mut8 (…) / HLA-A*0201 complex on T2 cells (human); assay: as above
T8 construct: also called EXT009-mut8

[12] = molecular target: T9, 009-mut4 (…) / HLA-A*0201 complex on T2 cells (human); assay: as above
T9 construct: also called EXT009-mut4

[13] = molecular target: T10, 009-mut6 (…) / HLA-A*0201 complex on T2 cells (human); assay: as above
T10 construct: also called EXT009-mut6

[14] = molecular target: T4, 009-mut5 (…) / HLA-A*0201 complex on T2 …; assay: phage FACS on peptide-loaded T2 cells
[15] = molecular target: T3, PRA300-309 (…) / HLA-A*0201 complex; assay: phage FACS on peptide-loaded T2 cells
[16] = molecular target: T11, 009-AAAA (…) / HLA-A*0201 complex on T2 cells (human); assay: phage FACS on peptide-loaded T2 cells
T11 construct: Control peptide with alanines at positions 4-7; also called EXT009-AAAA; 009-AAAA (position 4-7)

[17] = molecular target: T12, 009-mut10 (…) / HLA-A*0201 complex on T2 cells (human); assay: phage FACS on peptide-loaded T2 cells
T12 construct: Alanine variant at peptide position 10

[18] = molecular target: T5, 009-mut7 (…) / HLA-A*0201 complex on T2 …; assay: phage FACS on peptide-loaded T2 cells
[19] = molecular target: T13, 009-mut2 (…) / HLA-A*0201 complex on T2 cells (human); assay: phage FACS on peptide-loaded T2 cells
T13 construct: also called EXT009-mut2

[20] = molecular target: T6, 009-mut9 (…) / HLA-A*0201 complex on T2 …; assay: phage FACS on peptide-loaded T2 cells
[21] = molecular target: T7, 009-mut3 (…) / HLA-A*0201 complex on T2 …; assay: phage FACS on peptide-loaded T2 cells
[22] = molecular target: T8, 009-mut8 (…) / HLA-A*0201 complex on T2 …; assay: phage FACS on peptide-loaded T2 cells
[23] = molecular target: T9, 009-mut4 (…) / HLA-A*0201 complex on T2 …; assay: phage FACS on peptide-loaded T2 cells
[24] = molecular target: T10, 009-mut6 (…) / HLA-A*0201 complex on T2 …; assay: phage FACS on peptide-loaded T2 cells
[25] = molecular target: T1, HLA-A*0201 on T2 cells without added …; assay: phage FACS on T2 cells without peptide
[26] = molecular target: T11, 009-AAAA (…) / HLA-A*0201 complex on T2 …; assay: phage FACS on peptide-loaded T2 cells; remark: listed apart in the source

B1: PRA300-309 peptide (ALYVDSLFFL) (peptide)
peptide: ALYVDSLFFL
notes: also called pr300 peptide; PRAME300 peptide
binding result [1]: binds

B2: Pr435#37 antibody (antibody, V domains shown)
VH: EVQLVESGAEVKKPGASVKVSCKASGYTFTSYYMHWVRQAPGQGLEWMGIINPSGGSTSYAQKFQGRVTMTRDTSTSTVYMELSSLRSEDTAVYYCAAGSYYSLDIWGQGTMVTVSS
VL: LLPVLTQPHSVSESPGKTVTISCTGSSGSIASNFVQWYQQRPGSAPTTVIYDDNQRPSGVPDRFSASIDRSSNSASLTISGLKTDDEADYYCQSYDGSNVIFGGGTKLTVLG
notes: also called Pr4350#37
binding result [2]: binds

B3: Pr435#12 antibody (antibody, V domains shown)
VH: EVQLVESGAEVKKPGSSVKVSCKASGGTFSSYAISWVRQAPGQGLEWMGRIIPILGIANYAQKFQGRVTITADKSTSTAYMELSSLRSEDTAVYYCARQGYVWSEMDFWGQGTLVTVSS
VL: LLPVLTQPPSVSVAPGKTARITCGGNNIGSKSVHWYQQKPGQAPVLVIYYDSDRPSGIPERFSGSNSGNTATLTISRVEAGDEADYYCQVWDSITDHYVFGTGTKVTVLG
notes: also called Pr4350#12
binding result [2]: binds

B4: Pr300#20-MAGE (antibody, V domains shown)
VH: QVQLVQSGAEVRKPGASVKVSCKASGGTFSSYAISWVRQAPGQGLEWMGRIIPILGIANYAQKFQGRVTITADKSTSTAYMELSSLRSEDTAVYYCARHYGQWWDYWGQGTLVTVSS
VL: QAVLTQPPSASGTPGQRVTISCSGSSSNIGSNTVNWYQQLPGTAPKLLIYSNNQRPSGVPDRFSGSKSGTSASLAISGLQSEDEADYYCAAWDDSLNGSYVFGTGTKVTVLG
modifications: modified afucosylated Fc
notes: also called Pr#20-Fc enhanced; Pr20M
Kd [3]: ≤ 4 nM
Kd [4]: ≥ 3 nM
EC50 (ADCC, 51Cr release, human PBMC effectors, E:T 50:1) [5]: 2 to 3 nM

B5: Pr300#20 human IgG1 antibody (antibody, V domains shown)
VH: QVQLVQSGAEVRKPGASVKVSCKASGGTFSSYAISWVRQAPGQGLEWMGRIIPILGIANYAQKFQGRVTITADKSTSTAYMELSSLRSEDTAVYYCARHYGQWWDYWGQGTLVTVSS
VL: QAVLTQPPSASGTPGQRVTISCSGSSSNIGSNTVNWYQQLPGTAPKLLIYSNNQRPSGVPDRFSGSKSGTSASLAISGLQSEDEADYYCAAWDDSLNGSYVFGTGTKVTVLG
notes: Full-length human IgG1 with matching human lambda constant region; Used APC-conjugated in flow cytometry; also called Pr#20; PR#20
binding result [6]: no binding
Median: APC-A [7]: 6240
Median: APC-A [8]: 41500
Median: APC-A [9]: 730
Median: APC-A [10]: 18900
Median: APC-A [11]: 10900
Median: APC-A [12]: 72800
Median: APC-A [13]: 28600

B6: EXT009-17 phage (scFv phage clone) (scFv)
scFv: QSVLTQPPSVSGAPGQRVTISCTGSSSNIGAGFDVHWYQQLPGTAPKLLIFGNSNRPSGVPDRFSGSKSGTSASLAITGLQAEDEADYYCQSYDSSLSGYVFGSGTKVTVLGSRGGGGSGGGGSGGGGSLEMAEVQLVESGAEVKKPGSSVKVSCKASGGTFSSYAISWVRQAPGQGLEWMGRIIPIFGIANYAQKFQGRVTITADKSTSTAYMELSSLRSEDTAVYYCARSMWYMDSWGQGTLVTVSS
MFI [14]: 85.1
MFI [15]: 19400
MFI [16]: 85.7
MFI [17]: 146
MFI [18]: 82.1
MFI [19]: 82
MFI [20]: 79.7
MFI [21]: 95.5
MFI [22]: 96.1
MFI [23]: 7510
MFI [24]: 23800
MFI [25]: 82.8
binding result [26]: no binding

B7: EXT009-8 phage (scFv phage clone) (scFv)
scFv: QSVVTQPPAVSGALGQRVTISCTGTTSNIGAGFDVHWYQQRPGAAPKLLISGNTHRPSGVPDRISGSKSGTLASLAITGLQAEDEADYYCQSYDRSLSTILFGGGTKLTVLGSRGGGGSGGGGSGGGGSLEMAQVQLVQSGAEVKKPGSSVKVSCKASGGTFSSHPISWVRQAPGQGLEWMGRIIPMLDIPNNAQKFQGRVTITADKSTDTAYLELSSLTSEDTAVYYCARGLYYYDYWGQGTLVTVSS
notes: also called EXT009-08
MFI [14]: 138
MFI [15]: 1360
MFI [16]: 86.3
MFI [17]: 83.2
MFI [18]: 83.1
MFI [19]: 83.3
MFI [20]: 83.2
MFI [21]: 88.2
MFI [22]: 82.5
MFI [23]: 87.6
MFI [24]: 3830
MFI [25]: 85.9
binding result [26]: no binding
